The source of these data is patent US20060121042A1 (AstraZeneca / MedImmune, published 2006).

Assay [1] deals with T1, hEphA2 (human, UniProt P29317).
T1 construct: also called human EphA2
Nature of the assay: ELISA. (An ELISA detects its analyte on a solid surface through an enzyme-linked reagent.)

The target in assay [2] is mEph A2 (mouse, UniProt Q03145). Briefly: ELISA.
Assay [3] has as its target T2, rrEphB1 (rat, UniProt P09759).
T2 sequence (receptor, looked up): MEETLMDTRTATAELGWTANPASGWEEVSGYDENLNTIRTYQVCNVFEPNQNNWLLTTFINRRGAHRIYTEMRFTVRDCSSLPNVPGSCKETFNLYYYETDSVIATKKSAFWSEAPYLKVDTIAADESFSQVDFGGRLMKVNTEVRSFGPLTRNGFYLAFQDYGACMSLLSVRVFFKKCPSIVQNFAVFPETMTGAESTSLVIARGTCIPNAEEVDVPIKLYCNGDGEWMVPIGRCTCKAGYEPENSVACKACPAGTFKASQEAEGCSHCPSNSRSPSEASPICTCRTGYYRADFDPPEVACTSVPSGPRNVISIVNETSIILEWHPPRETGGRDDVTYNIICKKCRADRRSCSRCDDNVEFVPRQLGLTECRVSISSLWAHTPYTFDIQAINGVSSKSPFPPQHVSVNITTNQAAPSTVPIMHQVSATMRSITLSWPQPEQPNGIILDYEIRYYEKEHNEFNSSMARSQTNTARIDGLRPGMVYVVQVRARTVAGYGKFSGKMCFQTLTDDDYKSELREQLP
Nature of the assay: ELISA.

The target in assay [4] is T3, rmEph B2 (mouse, UniProt P54763).
T3 sequence (receptor, looked up): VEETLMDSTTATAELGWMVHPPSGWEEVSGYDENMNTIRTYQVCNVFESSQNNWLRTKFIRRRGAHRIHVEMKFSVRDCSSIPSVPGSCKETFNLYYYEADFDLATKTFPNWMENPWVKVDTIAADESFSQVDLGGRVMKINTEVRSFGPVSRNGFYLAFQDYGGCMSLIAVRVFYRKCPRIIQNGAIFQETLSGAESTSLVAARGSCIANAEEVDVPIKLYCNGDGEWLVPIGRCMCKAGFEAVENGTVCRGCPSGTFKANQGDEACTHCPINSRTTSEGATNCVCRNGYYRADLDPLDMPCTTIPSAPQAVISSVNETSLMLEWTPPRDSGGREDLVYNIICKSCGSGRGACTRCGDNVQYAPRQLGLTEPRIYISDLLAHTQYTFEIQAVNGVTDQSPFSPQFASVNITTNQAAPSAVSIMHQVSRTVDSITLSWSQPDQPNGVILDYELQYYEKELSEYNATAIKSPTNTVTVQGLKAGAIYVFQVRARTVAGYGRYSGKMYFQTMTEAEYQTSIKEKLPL
Nature of the assay: ELISA.

The target of assay [5] is T4, rmEph B3 (mouse, UniProt P54754).
T4 sequence (receptor, looked up): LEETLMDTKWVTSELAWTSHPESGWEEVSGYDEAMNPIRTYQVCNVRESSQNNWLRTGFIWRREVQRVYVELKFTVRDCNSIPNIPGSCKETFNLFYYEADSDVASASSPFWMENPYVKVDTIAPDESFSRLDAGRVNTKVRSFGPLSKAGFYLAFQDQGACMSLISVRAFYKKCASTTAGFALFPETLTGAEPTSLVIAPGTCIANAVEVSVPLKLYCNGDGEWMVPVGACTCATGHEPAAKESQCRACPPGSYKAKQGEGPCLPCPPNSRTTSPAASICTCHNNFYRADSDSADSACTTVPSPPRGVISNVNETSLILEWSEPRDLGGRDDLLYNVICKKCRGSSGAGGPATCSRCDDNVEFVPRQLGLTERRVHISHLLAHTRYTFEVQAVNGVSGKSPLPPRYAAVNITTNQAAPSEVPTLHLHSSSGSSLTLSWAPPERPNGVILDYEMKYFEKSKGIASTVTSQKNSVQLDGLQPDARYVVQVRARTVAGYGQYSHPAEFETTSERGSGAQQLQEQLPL
Nature of the assay: ELISA.

Assay [6] has as its target T5, mEphA7 (mouse, UniProt Q61772).
T5 construct: part of an Fc fusion; also called rmuEphA7-Fc
T5 sequence (receptor-Fc fusion, looked up): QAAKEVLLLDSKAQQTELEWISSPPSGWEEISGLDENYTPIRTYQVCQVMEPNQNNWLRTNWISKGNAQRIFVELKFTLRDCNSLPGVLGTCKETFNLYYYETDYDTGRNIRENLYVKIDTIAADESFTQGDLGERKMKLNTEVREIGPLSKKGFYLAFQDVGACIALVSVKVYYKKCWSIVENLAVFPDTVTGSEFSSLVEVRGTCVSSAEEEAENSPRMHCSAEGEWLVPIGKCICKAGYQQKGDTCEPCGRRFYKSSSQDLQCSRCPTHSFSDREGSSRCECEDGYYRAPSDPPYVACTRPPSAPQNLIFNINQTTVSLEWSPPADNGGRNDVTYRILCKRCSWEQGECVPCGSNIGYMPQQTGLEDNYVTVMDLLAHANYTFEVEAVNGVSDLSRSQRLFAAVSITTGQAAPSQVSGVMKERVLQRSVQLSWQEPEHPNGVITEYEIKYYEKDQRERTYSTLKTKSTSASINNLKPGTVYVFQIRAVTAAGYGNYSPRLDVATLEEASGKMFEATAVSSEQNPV
Nature of the assay: ELISA, receptor coated on the plate, purified IgG, anti-human kappa-HRP. The procedure: (§1) Secondary screening of IgG constructs of affinity optimized combinatorial variants with additional EphA receptors: With purified IgG constructs of the nine combinatorial variants, additional secondary screening assays were performed using the Activity ELISA (see above) and recombinant EphA receptor proteins. More precisely, Nunc Maxisorp plates were coated with the following rEphA proteins: rhuEphAl-Fc; 0.5 μg/well, rmuEphA2-Fc; 0.5 μg/well, rmuEphA3-Fc: 0.1 μg/well, rmuEphA4-Fc; 0.1 μg/well, rratEphA5-Fc; 0.5 μg/well, rmuEphA6-Fc; 0.5 μg/well, rmuEphA7-Fc; 0.1 μg/well, rEphA8; 0.2 μg/well (all R&D Systems), rhuEphA2-Fc; 0.5 μg/well, and rhuEphA4-His; 0.1 μg/well (both produced at MedImmune, Inc.). Plates were blocked with 3% BSA+0.1% Tween20 for 2 h. […] Incubation with a goat anti-human kappa horseradish peroxydase (HRP) conjugate then followed. HRP activity was detected with TMB substrate and the reaction quenched with 0.2 M H₂SO₄. Plates were read at 450 nm. Data was analyzed by normalizing Fab concentrations to the corresponding activity data (see FIGS. 12A-12J and 14).

In assay [7] the target is T6, mEphA3 (mouse, UniProt P29319).
T6 construct: part of an Fc fusion; also called rmuEphA3-Fc
T6 sequence (receptor-Fc fusion, looked up): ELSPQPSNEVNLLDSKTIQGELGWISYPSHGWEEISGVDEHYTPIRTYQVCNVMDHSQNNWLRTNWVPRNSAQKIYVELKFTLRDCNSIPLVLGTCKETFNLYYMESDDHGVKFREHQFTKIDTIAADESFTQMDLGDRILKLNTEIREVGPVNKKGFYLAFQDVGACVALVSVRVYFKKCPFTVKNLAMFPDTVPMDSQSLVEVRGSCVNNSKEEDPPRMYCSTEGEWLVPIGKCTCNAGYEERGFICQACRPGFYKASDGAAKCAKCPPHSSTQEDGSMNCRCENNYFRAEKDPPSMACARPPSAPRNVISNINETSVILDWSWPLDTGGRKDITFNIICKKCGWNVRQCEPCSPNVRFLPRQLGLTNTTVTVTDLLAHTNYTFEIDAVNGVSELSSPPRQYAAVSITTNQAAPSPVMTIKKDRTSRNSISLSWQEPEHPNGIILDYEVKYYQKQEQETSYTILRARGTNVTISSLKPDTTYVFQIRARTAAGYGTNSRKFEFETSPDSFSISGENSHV
Described as above. The procedure:
as §1

Assay [8] deals with T7, mEphA4 (mouse, UniProt Q03137).
T7 construct: part of an Fc fusion; also called rmuEphA4-Fc
The description is as above. The procedure: as §1

Assay [9] has as its target T8, r murine EphA7 (mouse, UniProt Q61772).
T8 construct: recombinant Fc fusion (R&D Systems); also called rmuEphA7-Fc; mEphA7
T8 sequence (receptor-Fc fusion, looked up): T5 sequence (receptor-Fc fusion, looked up)
Briefly: activity ELISA, IgG on coated antigen. The procedure:
as §1

In assay [10] the target is T9, r murine EphA3 (mouse, UniProt P29319).
T9 construct: recombinant Fc fusion (R&D Systems); also called rmuEphA3-Fc; mEphA3
T9 sequence (receptor-Fc fusion, looked up): T6 sequence (receptor-Fc fusion, looked up)
Briefly: activity ELISA, IgG on coated antigen. The procedure:
as §1

Assay [11] has as its target T10, r murine EphA4 (mouse, UniProt Q03137).
T10 construct: recombinant Fc fusion (R&D Systems); also called rmuEphA4-Fc; mEphA4
Nature of the assay: activity ELISA, IgG on coated antigen. The procedure: as §1

Assay [12] addresses T11, Human EphA4-His fusion protein (human, UniProt P54764 20-547).
T11 construct: also called rhuEphA4-His; not shown: Histidine tag
Nature of the assay: BIAcore, IgG immobilized on the sensor chip, EphA4-his as analyte. The procedure: (§2) FIG. 15A-15B. […] Binding affinities were measured using the BIAcore assay. […] Variant kinetic measurements for human EphA4 and were obtained using BIAcore with immobilized variant antibodies and human EphA4-Fc and EphA4-His as analytes.

In assay [13] the target is T12, Human EphA4-Fc fusion protein (human, UniProt P54764 20-547).
T12 construct: not shown: Fc portion of a human IgG1
Nature of the assay: BIAcore, IgG immobilized on the sensor chip, EphA4-Fc as analyte; koff and KD printed as ***, comment: off-rate below LOD. On the procedure: as §2
On the technique in general: SPR reads the build-up and loss of mass on a sensor chip optically.

Assay [14] concerns the target T13, mEph A7 (mouse, UniProt Q61772).
T13 sequence (receptor, looked up): T5 sequence (receptor-Fc fusion, looked up)
Briefly: ELISA.

Assay [15] addresses mEph A4 (mouse, UniProt Q03137). Nature of the assay: ELISA.
Assay [16] addresses T14, human EphA4 (construct not given) (human, UniProt P54764 20-547, limits assumed).
T14 construct: also called EphA4 receptor
Nature of the assay: ELISA.

Assay [17] concerns the target T15, mEph A3 (mouse, UniProt P29319).
T15 sequence (receptor, looked up): T6 sequence (receptor-Fc fusion, looked up)
Nature of the assay: ELISA.

Positions count from the first letter of the chain named.

T11 sequence (P54764 20-547): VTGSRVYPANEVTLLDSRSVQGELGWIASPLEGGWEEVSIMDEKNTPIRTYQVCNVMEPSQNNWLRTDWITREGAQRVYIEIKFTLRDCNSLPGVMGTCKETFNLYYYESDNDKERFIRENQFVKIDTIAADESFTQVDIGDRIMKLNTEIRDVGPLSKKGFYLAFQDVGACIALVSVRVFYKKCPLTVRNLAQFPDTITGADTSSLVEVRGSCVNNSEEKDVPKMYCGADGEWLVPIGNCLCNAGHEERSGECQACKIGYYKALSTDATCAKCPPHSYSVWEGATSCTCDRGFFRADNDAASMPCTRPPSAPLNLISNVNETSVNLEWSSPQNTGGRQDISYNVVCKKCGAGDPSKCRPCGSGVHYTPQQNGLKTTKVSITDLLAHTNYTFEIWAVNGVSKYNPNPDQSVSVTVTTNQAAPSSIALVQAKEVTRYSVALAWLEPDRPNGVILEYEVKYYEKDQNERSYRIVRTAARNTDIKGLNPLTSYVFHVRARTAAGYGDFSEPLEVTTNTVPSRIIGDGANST
T12 sequence (P54764 20-547): as above
T7 sequence (Q03137 20-547 limits assumed): as the sequence (P54764 20-547) above, with P59A, N121S, V124G, R250Q, S251N, T270S, K378R, N406S counted along it
T10 sequence (Q03137 20-547 limits assumed): as the sequence (P54764 20-547) above, with P59A, N121S, V124G, R250Q, S251N, T270S, K378R, N406S counted along it
T14 sequence (P54764 20-547 limits assumed): as the sequence (P54764 20-547) above
T1 sequence (P29317 25-534 limits assumed): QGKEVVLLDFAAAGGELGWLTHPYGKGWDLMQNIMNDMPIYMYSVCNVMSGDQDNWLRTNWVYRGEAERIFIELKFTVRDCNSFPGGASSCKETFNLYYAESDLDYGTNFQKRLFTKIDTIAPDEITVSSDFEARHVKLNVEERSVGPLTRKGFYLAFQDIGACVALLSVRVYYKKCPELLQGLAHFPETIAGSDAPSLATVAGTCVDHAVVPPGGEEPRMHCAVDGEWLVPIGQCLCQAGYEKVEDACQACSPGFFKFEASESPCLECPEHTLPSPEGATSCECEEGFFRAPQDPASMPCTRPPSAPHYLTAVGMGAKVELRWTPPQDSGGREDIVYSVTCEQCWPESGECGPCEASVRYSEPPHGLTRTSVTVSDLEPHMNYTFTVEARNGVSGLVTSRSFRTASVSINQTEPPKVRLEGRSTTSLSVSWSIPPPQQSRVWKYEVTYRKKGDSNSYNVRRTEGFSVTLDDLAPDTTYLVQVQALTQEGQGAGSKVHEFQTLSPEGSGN
Chain of mEph A4 (Q03137 20-547 limits assumed): as the sequence (P54764 20-547) above, with P59A, N121S, V124G, R250Q, S251N, T270S, K378R, N406S counted along it
Chain of mEph A2 (Q03145 26-535 limits assumed): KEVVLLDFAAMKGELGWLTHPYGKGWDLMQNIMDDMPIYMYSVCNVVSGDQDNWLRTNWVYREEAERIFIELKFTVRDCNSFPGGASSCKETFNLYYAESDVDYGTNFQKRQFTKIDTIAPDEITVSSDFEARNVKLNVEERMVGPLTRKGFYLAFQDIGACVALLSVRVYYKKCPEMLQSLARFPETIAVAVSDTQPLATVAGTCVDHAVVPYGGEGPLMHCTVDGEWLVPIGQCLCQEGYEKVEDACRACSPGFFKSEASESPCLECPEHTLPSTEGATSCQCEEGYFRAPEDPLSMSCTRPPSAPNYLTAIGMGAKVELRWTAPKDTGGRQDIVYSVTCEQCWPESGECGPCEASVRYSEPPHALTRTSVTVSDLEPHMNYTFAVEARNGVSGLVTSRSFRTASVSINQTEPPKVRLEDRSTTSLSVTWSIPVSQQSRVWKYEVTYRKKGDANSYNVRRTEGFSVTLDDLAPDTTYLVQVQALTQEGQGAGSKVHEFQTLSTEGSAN

B1: human Anti-Eph Monoclonal Antibody GEA44 (antibody, V domains shown)
VH: QVQLLQSGAEVKKPGASVKVPCKASGYTFTSYAMSWVRQAPGQGLEWMGWINTNTGNPTYAQGFTGRFVFSLDTSVSTAYLQISSLKAEDTAVYYCARVRTTVYGDGMDVWGQGTLVTVSS
VL: EIVLTQSPATLSVSPGERATLSCRASQSVSSNLAWYQQKPGQAPRLLIYGASTRATGIPDRFSASGSGTDFTLTISRVEPEDFAVYYCQQYGSSWTFGQGTKVEIK
notes: also called mAb GEA44; parental mAb GEA44
As to B1, the “ELISA O.D. value” in [1] turned out to be 0.783; in [2], 0.792; in assay [4], 0.535. The binding result in [3] and in [5] was “binds” throughout.

B2: 6B7 IgG1 (affinity optimized combinatorial variant of mAb GEA44 in human IgG1 format) (antibody, V domains shown)
VH: B1 VH with Y32R, T101F
VL: B1 VL with L33P, S93P
Consider B2, for which the binding result in [6], in [7], in assay [8], in [9], in [10] and in [11] was “binds” in each case. Moreover, the Kd in assay [12] is 1.2 nM. Moreover, in [12], the koff is 0.000353 s⁻¹. The kon was determined as 295000 M⁻¹ s⁻¹ in assay [12] and 793000 M⁻¹ s⁻¹ in assay [13].

B3: 3C6 IgG1 (affinity optimized combinatorial variant of mAb GEA44 in human IgG1 format) (antibody, V domains shown)
VH: B1 VH with Y32R, T101L
VL: B1 VL with L33P, A34P
For B3, the binding result in assay [6], in assay [8], in assay [9] and in [11] was “binds” in each case. This molecule also had a kon in assay [13] of 464000 M⁻¹ s⁻¹.

B4: GEA10-C12 (antibody, V domains shown)
VH: QVQLQESGPGLVKPSGTLSLTCAVSGGSISSSNWWSWVRQPPGKGLEWIGEIYHSGSTNYNPSLKSRVTISVDKSKNQFSLKLSSVTAADTAVYYCARGGIAAAGYWGLGYNWFDPWGQGTLVTVSS
VL: QSVLTQPPSVSGAPGQRVTISCTGSSSNIGAGYDVHWYQQLPGTAPKLLIYGNSNRPSGVPDRFSGSKSGTSASLAITGLQAEDEADYYCQSYDNSLSGSVVFGGGTKLTVL
On to B4, for which the “ELISA O.D. value” came out at 0.132 in [14]; 0.253 in [15]; 0.267 in assay [16]; 0.116 in assay [17]; 0.823 in assay [3]; 0.264 in assay [4]. For the same molecule, the “ELISA O.D. value” in assay [5] was 0.377.

In general, Kd refers to the concentration at which binding is half-saturated. By koff is commonly meant the first-order rate constant of dissociation. The low end stands for slow dissociation, the high end for fast dissociation. For orientation: kon means a measure of how fast the partners come together. Low readings indicate slower complex formation, high ones faster complex formation.
